According to PMC12042621 (Structure (London, England : 1993), 2025):
Substitutions are numbered along the chain they refer to. Names may count otherwise.

B1: LaG43 (VHH)
VHH: DVQLVESGGGLVQPGGSLRLSCEASGGAFSTVAMGWFRQAPGKEREFVGAITWTAGSTYYADSAKGRFTISRDNAKNTVHLQMNSLKPEDTAVYYCAQRVRGFFGPLRTTPSWYEYWGQGTQVTVSG
B2: LaG16 (VHH)
VHH: QVQLVESGGRLVQAGDSLRLSCAASGRTFSTSAMAWFRQAPGREREFVAAITWTVGNTILGDSVKGRFTISRDRAKNTVDLQMDNLEPEDTAVYYCSARSRGYVLSVLRSVDSYDYWGQGTQVTVSG
B3: LaG24_(Q68K) (VHH)
VHH: DVQLVESGGGLVQPGGSLRLSCAASGEIASIIAIGWYRQAPGKQRESVALITRSGMITYGDSAKGRFTISRDDAKNTVYLHMDDLVPEDTAVYYCNAKKVSFGDYWGQGTQVTVSG
B4: LaG24_(H85Q) (VHH)
VHH: B3 VHH with K64Q, H81Q
B5: LaG19_(S102R) (VHH)
VHH: QVQLVESGGGLVQAGGSLRLSCAASGPTGAMAWFRQAPGKEREFVGGISRSGTDTYYVDSVKGRFTIDRDNAKNTVYLQMNSLKPEDTAVYYCAARRRQILFTSRTDYEFWGQGTQVTVSG
B6: LaG41 (VHH)
VHH: DVQLVESGGGLVQAGGSLRLSCAASGPTGAMAWFRQAPGKEREFVGGISGSETDTYYVDSVKGRFTVDRDNVKNTVYLQMNSLKPEDTAVYYCAARRRITLFTSRTDYDFWGRGTQVTVGL
B7: LaG21_(L69F) (VHH)
VHH: B6 VHH with D1Q, K40M, V58A, S60F, Y77D, I99V, T106A, R113Q, G120S, L121G
B8: S1–8 (VHH)
VHH: QVQLVESGGGLVQAGGSLRLSCAASGRVLSSYVMGWFRQAPGKEREFVAAIRWNGGSTFYADSVKGRLTISRDNAKNTVYLQMNSLKPEDTAAYYCAASPRTMYDATYYYSRTSYDYWGQGTQVTVS
B9: LaG21 (VHH)
VHH: QVQLVESGGGLVQAGGSLRLSCAASGPTGAMAWFRQAPGMEREFVGGISGSETDTYYADFVKGRLTVDRDNVKNTVDLQMNSLKPEDTAVYYCAARRRVTLFTSRADYDFWGQGTQVTVSG

How the values were obtained:
[1] = target: Green Fluorescent Protein (Aequorea victoria, laboratory variant …); experiment: SPR
SARS-CoV-2 spike S1 = SARS-CoV-2 spike S1 (SARS-CoV-2, wild type (Wuhan-Hu-1), UniProt P0DTC2); experiment: SPR

Row | Binder | Kd [1] [nM] | also measured
1 | B1 | 11 | –
2 | B2 | 0.7 | –
3 | B3 | – | fold increase in affinity over wildtype LaG24 [1]: ~10 fold
4 | B4 | – | fold increase in affinity over wildtype LaG24 [1]: > 10 fold
5 | B5 | 0.6 | –
6 | B6 | 0.9 | –
7 | B7 | 0.7 | –
8 | B8 | – | Kd (SARS-CoV-2 spike S1): 3.8 nM
9 | B9 | 7 | –
